{"source": "the DeepSol protein solubility set"}
{"experiment": "soluble on expression in E. coli; label from the status in PepcDB or PDB records"}
{"sequence": "LTLKNPIMVVGLPGVGLVGKLVAEHLVDELAAERIMEVYSPHFPPQVLVNKDCTVRPVSNTIYLGKANETDVLFLVGDHQSTTAQGHYELCSLYLDIAEELKVPRIYTLGGYPTGKLTYEDTVLGVANSTELIEEIKQYGVEFRESEPSGGIVGASGLLVAFSGMRGIDAACLMGMTPGYLMDPKSAQSLLKVLCNIFGIEVNTDSLKKKAEEMENILEKLKEKEEQQNLPEVKPTEEDLRYIG", "soluble on expression in E. coli": "not soluble"}
{"sequence": "MAHHHHHHMLRYTPMWRCSAAAMQTLSAWLTDLAEESMAVPSATAADLQTRQNDGQGPTRKTPAQLWRELEDAATHANALRETDTLFSILQCLLLKQQYPTDVHAWARLAKQLLPYSGIEQKSVLHYPGRSDASYRRDGHPGGSSLANLSSSSDPVLTDADGGFGDDGASRRGGGGARRGGEYAVPYSLYPSRETLLLSGGVVPLSARVPCGDGRAISLFVRGFTRFVEGQLGVQPHTQLTSELLQVVKDVSGAVTEALAVNADSLQLELLLPALLDYMELLHVLDLRTATVAACGPLATEEERRDAAGATVRDDEPNGHGRSSPPRPSKPTRFLQNMVHDLAQNAMAGAARGARVVLYYLNECFAAVVEAYQADAAATFTDKMYWAQQRYLLTLTRACMWAISQHYTSATTAALSAASGSVASSPSPHVQGLRPTVATADLVATAPMNAHIQALYDHIDVLFQRNTHADNPLHLTDEEVAQLKEIHTAALLRALRIEEAAPDAYLRRALEVVDRVPASMAIEGELIAGKVRLLELDSDTVDEEGRAAIYDDLLTSLRSLVEMRPRFLRHNGAHHAAGGGAAAAASASTPADGGGGGGEEDEGDGEQLRLDAATQAILQRAHFDVITAFCAAHKEEWSNEAYNILVAHKYHGVKITNDLIRPVLEVFSRRGDCRVFSLVDLCVLYSNEPIDMHTIALLFRTCAAAGDHHRARTFLQLVNEIIHGFLVKCPASVKESLQELKLLDPPPRHLFVSTEDDLVQSALGEQQRTVRRLPTGS", "soluble on expression in E. coli": "not soluble"}
{"sequence": "FNKELDPVQKLFVDKIREYRTKRQTSGGPVDAGPEYQQDLDRELFKLKQMYGKADMNTFPNFTFEDPKFEVVEKPQS", "soluble on expression in E. coli": "soluble"}
{"sequence": "MLISIESKEHYRILCIDGGSTDQTIPMIERLQRELKHISLIQLQNASIATCINKGLMDIKMTDPHDSDAFMVINPTSIVLPGKLDRLTAAFKNNDNIDMVIGQRAYNYHGEWKLKSADEFIKDNRIVTLTEQPDLLSMMSFDGKLFSAKFAELQCDETLANTYNHAILVKAMQKATDIHLVSQMIVGDNDIDTHATSNDEDFNRYIIEIMKIRQRVMEMLLLPEQRLLYSDMVDRILFNNSLKYYMNEHPAVTHTTIQLVKDYIMSMQHSDYVSQNMFDIINTVEFIGENWDREIYELWRQTLIQVGINRPTYKKFLIQLKGRKFAHRTKSMLKRLEHHHHHH", "soluble on expression in E. coli": "not soluble"}
{"sequence": "MILFDKNKRILKKYAKMVSKINQIESDLRSKKNSELIRLSMVLKEKVNSFEDADEHLFEAFALVREAARRTLGMRPFDVQVMGGIALHEGKVAEMKTGEGKTLAATMPIYLNALIGKGVHLVTVNDYLARRDALWMGPVYLFLGLRVGVINSLGKSYEVVWKNPDLARKAIEENWSVWPDGFNGEVLKEESMNKEAVEAFQVELKEITRKEAYLCDVTYGTNNEFGFDYLRDNLVLDYNDKVQRGHFYAIVDEADSVLIDEARTPLIISGPSKESPSVYRRFAQIAKKFVKDKDFTVDEKARTIILTEEGVAKAEKIIGVENLYDPGNVSLLYHLINALKALHLFKKDVDYVVMNGEVIIVDEFTGRLLPGRRYSGGLHQAIEAKEGVPIKEESITYATITFQNYFRMYEKLAGMTGTAKTEESEFVQVYGMEVVVIPTHKPMIRKDHDDLVFRTQKEKYEKIVEEIEKRYKKGQPVLVGTTSIEKSELLSSMLKKKGIPHQVLNAKYHEKEAEIVAKAGQKGMVTIATNMAGRGTDIKLGPGVAELGGLCIIGTERHESRRIDNQLRGRAGRQGDPGESIFFLSLEDDLLRIFGSEQIGKVMNILKIEEGQPIQHPMLSKLIENIQKKVEGINFSIRKTLMEMDDVLDKQRRAVYSLRDQILLEKDYDEYLKDIFEDVVSTRVEEFCSGKNWDIESLKNSLSFFPAGLFDLDEKQFSSSEELHDYLFNRLWEEYQRKKQEIGEDYRKVIRFLMLRIIDDHWRRYLEEVEHVKEAVQLRSYGQKDPIVEFKKETYYMFDEMMRRINDTIANYVLRVVKVSEKDEKEAKEELGKIRLVHEEFNLVNRAMRRATEKKKKKDGLHSFGRIRVKR", "soluble on expression in E. coli": "soluble"}
{"sequence": "MAKKLFAFLGIGDYKSVEYYFQNKKEGYKTEYIQEAITKLLNEQDLNVTVFVTAEARKKHWEPENNKGLESRLKKLNINCKAVNIPDGKANDDVWKIFTSVYSEIEFNDEIYVDVTHSLRNIPIIFMSVLNYAKVTKNCTIKGIFYGAYEAKENERAPIYDLTLFDQIGEWSSGVEQLLTTGECEMFCSTVEKTLDPLLREAKGKDELIKLVKKCSKLIKEFYTDLKLVRGKSVLEDGRKLYQVLCEIKALNTEKHITMQPFFHILERVENQVAFFQNENLIENILECVKLCKKFGQYQQAYTFLRENIINYVCINTGLDWKKEDPDRLKAEELIGKLYMRKIKKVQIEVSEDIKSILENGEDFICDDAIELFGELIEFRNDLDHAQFRMINPSKDKITCKLDSFIERFEKYYISK", "soluble on expression in E. coli": "not soluble"}
{"sequence": "MSLEPSVTGPSEAPVLDTAWMKAVPSVRPVPAGSAAEALEALAVKGRAADDSYERTAFGQAWLDVDRNGCDTRNDILRRDLAGVQFTEGSRCRVAGGEFHEPYTGAVVTFTRGAESSKAVQIDHVVALGDAWQKGAQQLTPQQRQSLANDPLNLVAADGPANQEKSASDAASWLPKNKTFRCHYVARQISVKAAYGLWVTQPEKDAMKRVLDSCPQQQTVMPREGHHHHHH", "soluble on expression in E. coli": "soluble"}
{"sequence": "MKEMVGGCCVCADENGWTDNPLIYCDGENCEVAVHQGCYGIQEVPEGEWFCAKCTKASAMMPGSINEATFCCQLCPFDYGALKKTDRNGWAHVICALYIPEVRFGNVHSMEPVILNDVPTDKFNKLCYICNEERPNDAKKGACMSCNKSTCKRSFHVTCAQRKGLLCEEGAISRNVKYCGYCENHLKKAINDPAIKVIPACPPVQRLSKEQDKKKTVLLTSLPLPPPAPRLHMLADPLPIKSNKVNNVLGLGSAINAVSLEERPASGSTVNSGIFVPPPTAFSPPLTTSSRSSVAQDPSPPLTINKNSLSSSGPLIPSTAHLSATTASATPIMANGSTLPPSSETTVGTHCLQQLQIQSAAAAAITQNQIGPSELNGYPAASQLSSFMHEIPARNTTSVASLLPPGAAEYHLNGSGDEEKTVKAVLTAPLTKAKRIRDSKNDMMDKTHKRPRANARPPAVLGSMSSGSSGGTVGKSPSMQRLQNLVAPIVSETVTDFQRDRVADRTAAERRAAAAQSQPSTSTNGGPNVTIPAVVEVHTNSTNSTNHQNNGLTQNAPASTSMQAGTSSNDGVISQNGTSSTSQSNRLNLPSFMEQLLERQWDQGSSLLMANAHFDVAQLLSCLFQLKSENFRLEENLSGLRKRRDHLFALNSRLAEVNTLDVSKRQRSDGLLLQQQIAHHLDPTSIVPKAEVHKQEPLSAPTSVPLPANHSSSLFEDIKAPKATYSRKTPSNIPLTVPLSTAATALTTTTAASSGAPVNSNIQNHRATPSTAGAPMAATPIMTAVTSANELAALSPERAQALLNMYRMPLDANVAAQLSMITNFPGQVNPSLFSRLLAVNMMNGGLQPNGQPLSALPPPTSATPNGK", "soluble on expression in E. coli": "soluble"}
{"sequence": "GEPDAQNWQHTVGKDVVAGLTQREIDRQEVINELFVTEASHLRTLRVLDLIFYQRMKKENLMPREELARLFPNLPELIEIHNSWCEAMKKLREEGPIIKEISDLMLARFDGPAREELQQVAAQFCSYQSIALELIKTKQRKESRFQLFMQEAESHPQCRRLQLRDLIISEMQRLTKYPLLLESIIKHTEGGTSEHEKLCRARDQCREILKYVNEAVKQTENRHRLEGYQKRLDATALERASNPLAAEFKSLDLTTRKMIHEGPLTWRISKDKTLDLHVLLLEDLLVLLQKQDEKLLLKCHSKTAVGSSDSKQTFSPVLKLNAVLIRSVATDKRAFFIICTSKLGPPQIYELVALTSSDKNTWMELLEEAVRNATRHPHHHHHH", "soluble on expression in E. coli": "soluble"}
{"sequence": "MVGRKRRASMSITDGNGSLSDTVRPGDWVVVAELATPAFSVKNPESYQVASPLPLPLPSTLLGGLMRGASLLGSCTGGIASQSCIKKTGRIVKAAAPLSKPGQILGVEWEVVLRRLRKVLEPDSEEGSTRENRGNRVLDELSRISDALLRGYITPYNPVYAVFVARGRDNANRIEKALWYIDRLGDSESLVSARPVGRCQLAEFRSKSVNTPVALDSAVGGSFTVVYAPARAGRTGRTRRSEAIAIAMPVKKEAVERGYVLVYSEIEVEGSVYGCSVEGIDGRINVAVHESFHEVSGYGIWMPA", "soluble on expression in E. coli": "not soluble"}
{"sequence": "SRSKQKSRRRCFQCQTKLELVQQELGSCRCGYVFCMLHRLPEQHDCTFDHMGRG", "soluble on expression in E. coli": "soluble"}
{"sequence": "MSLRTGKTNVIALVLSVDEELMGFTSQMVFGITEVLSTTQYHLVVTPHIHAKDSMVPIRYILETGSADGVIISKIEPNDPRVRFMTERNMPFVTHGRSDMGIEHAFHDFDNEAYAYEAVERLAQCGRKRIAVIVPPSRFSFHDHARKGFNRGIRDFGLTEFPIDAVTIETPLEKIRDFGQRLMQSSDRPDGIVSISGSSTIALVAGFEAAGVKIGEDVDIVSKQSAEFLNWIKPQIHTVNEDIKLAGRELAKALLARINGEAAETLQSISGPVWSSMAPKEGHHHHHH", "soluble on expression in E. coli": "soluble"}
{"sequence": "MHHHHHHAMGTKKSAAEASKKPRQKRTATKQYNVTQAFGRRGPEQTQGNFGDQDLIRQGTDYKHWPQIAQFAPSASAFFGMSRIGMEVTPSGTWLTYHGAIKLDDKDPQFKDNVILLNKHIDAYKTFP", "soluble on expression in E. coli": "soluble"}
{"sequence": "MLRKDIGIDLGTANTLVFLRGKGIVVNEPSVIAIDSTTGEILKVGLEAKNMIGKTPATIKAIRPMRDGVIADYTVALVMLRYFINKAKGGMNLFKPRVVIGVPIGITDVERRAILDAGLEAGASKVFLIEEPMAAAIGSNLNVEEPSGNMVVDIGGGTTEVAVISLGSIVTWESIRIAGDEMDEAIVQYVRETYRVAIGERTAERVKIEIGNVFPSKENDELETTVSGIDLSTGLPRKLTLKGGEVREALRSVVVAIVESVRTTLEKTPPELVSDIIERGIFLTGGGSLLRGLDTLLQKETGISVIRSEEPLTAVAKGAGMVLDKVNILKKLQGAGGSHHHHHH", "soluble on expression in E. coli": "soluble"}
{"sequence": "MGSDKIHHHHHHMTTGKLSHAHLCGWLRFKHLTLLTTLAESRNMHATARVMHLSQPAASKMLRDLEVYFGFALFERLPRAMQPTELGEQVIRHAWILLNDMERLVDDINDLREGGYGQLLIGAIAAAAPEILPAAIARLKQARPRLSVSLQEQTSDRLLLELEHKRLDLVIGRLTHVSQHNLFDFEPLLDEPLRVVVRRDHPLTRRGEAPSLDELSHWPWILHPLSSPMRGVFESALAEEGIATPANVVETTSIQATLQLLQSSDMLAVLPRSVMRRPLAGGQYVVLERVIGKPLDYYGIITRRQEPLSPAVEELVVHLRRLAAEADGR", "soluble on expression in E. coli": "not soluble"}
{"sequence": "MSLDKKPVTTRKKVKVTGTETYINQSTGEIKEMQVIDIEERDFNFHKVWLEHIIHSMDLIGNQKTRLAFWLINNLNRDNVLIMTQRKIAEKTGISLETVRQTMKALMESGFLIKINSGAYCVNPDAVFKGGKTDRLNVLIQYRKSEQENTKTSEPTSEKDEPSLFNNEQLKAMEGHHHHHH", "soluble on expression in E. coli": "soluble"}
{"sequence": "MSLEDFAESEGGVKKKIPISLVTIRSAKLFDIPFIMRIEQASFREKYPRGLFLTFLESNPDTFLVAEYNGKVIGYVMGYLRPDMEGHIMSIAVDPNYRGNGIGKALMIAVINKLFKKGARWIGLEVRVSNVIAINLYKKLGFKITKRIYSYYSDGEDAFYMILTPEDWKRVNLEEGHHHHHH", "soluble on expression in E. coli": "soluble"}
{"sequence": "MDQFECINVADAHQKLQEKEAVLVDIRDPQSFAMGHAVQAFHLTNDTLGAFMRDNDFDTPVMVMCYHGNSSKGAAQYLLQQGYDVVYSIDGGFEAWQRQFPAEVAYGA", "soluble on expression in E. coli": "soluble"}
{"sequence": "GRRDNLIVGLDIGTTKICAIVGNVTEDGIDIVGIGTSPSRGMRKGVVINIESTVESIKKAVSEAELMAGCDIRSVYAGIAGGHIKGINSQGVIAIKNREVSSEDVKRVIDAAKAIAIPMDR", "soluble on expression in E. coli": "not soluble"}
